Measured values from publication PMC8305194, “Structural, Mechanistic, and Functional Insights into an Arthrobacter nicotinovorans Molybdenum Hydroxylase Involved in Nicotine Degradation” (Molecules, 2021).

Assays:
purified protein = substrate: CNCCCC(=O)c1ccc(O)nc1; test: purified protein; format: biochemical, Paenarthrobacter nicotinovorans; details: 500 μM PMS, 50 μM DCIP, aerobic, 30 °C, Tris-HCl pH 8.0
[1] = target: the molecule itself; test: crystal structure; Kdh holoenzyme crystallised by hanging-drop vapor diffusion at 14 °C; 1% tryptone, 0.1 M Tris-HCl pH 8.0, 25% PEG 3350; space group P212121, two heterotrimers per asymmetric unit; 3.4 Å

B1: Kdh holoenzyme (KdhL, KdhM, KdhS); 6-hydroxypseudooxynicotine 2-oxidoreductase; ketone dehydrogenase (Paenarthrobacter nicotinovorans; F269A) (protein)
chain: MMAKAKALIPDNGRAGADEGNRQAWIGQEVLRREDRRLLTGTATFAGDLGVPGQLHMRIVRSTQAHARIVSIDATEAEKTPGVRMVITSEHTRHLGSVLLEELGYHEIYENIEDFSHPVLAVDKVLYVGQPVVAVLAVDPYLAEDAAELVSIEYEPLPVLLDPEEALTGKVELFPGRGNEGARIKKAYGDIDRAFAEAEHVIRHKYVTNRHSGVPMEPRAVVVQPDPARDTLFIWGTVHVHDNRRIIAKMLNLPEVNVRMKHVEIGGSAGVKGGVFPENVVAAWAARTLGVPIKWTEDRVEHMTSTSHAREMVHKLELALDAEGRILGMKDEIFHNHGAYFRQAEPLVSDITAGIVFGPYRVPAYDATLHAVFTNKTPVGAYRAPGRYESTFARERIFDLACAEIGLSKTEFRRRNLLTAEDLPWTPGLDIVHEPYHFDSGDVVKHFNEALEAANFSEWLEESKRLRADGRKVGVGLGVLMDKAGLGLFETGGVEVSRAGRVTVKTGGSSVGQGIETVLAQIVAEELQIAPENIDIVHSDTELIPDGVGSWSSRSTVLAGGAARKAALAVVEKARRLASEMLEADPDDLELTAGSFKVKGTDQQISLYEIAAARDPFTARADNDEPGLAADAVYMNNAMNYPYGVTLVQIELDPDTGGHRILRFSTSTEAGRVINPLTTRGQIIGAAVQGIGGALYEEFLYEEDGQPITTSFMDYLLPSAQEMPNVDCFVTEDAKSPDNPFGAKGLGEIGIIAAGAAIASAIDDAIADGVHTDRLPVTPEQIFSRCQGLNKAER
notes: kdhLMS co-expressed from pART2-kdhLMS in A. nicotinovorans pAO1; Ni-NTA (tag not described) and Superdex 200; KdhL 87 kDa, KdhM 287 residues, KdhS 160 residues; heterotrimer, dimer of heterotrimers in crystal; with 6-hydroxypseudooxynicotine dehydrogenase complex subunit alpha; 6-hydroxypseudooxynicotine dehydrogenase complex subunit beta
Which Km (purified protein) does the source give for B1 here?
Its Km is 25.98 ± 2.73 µM.

What about the kcat (purified protein) of the same protein?
Its kcat is 2.3 ± 0.07 s⁻¹.

And the kcat/Km (purified protein)?
The kcat/Km was 90000 ± 30000 M⁻¹ s⁻¹.

B2: Kdh holoenzyme (KdhL, KdhM, KdhS); 6-hydroxypseudooxynicotine 2-oxidoreductase; ketone dehydrogenase (Paenarthrobacter nicotinovorans; R383A) (protein)
chain: MMAKAKALIPDNGRAGADEGNRQAWIGQEVLRREDRRLLTGTATFAGDLGVPGQLHMRIVRSTQAHARIVSIDATEAEKTPGVRMVITSEHTRHLGSVLLEELGYHEIYENIEDFSHPVLAVDKVLYVGQPVVAVLAVDPYLAEDAAELVSIEYEPLPVLLDPEEALTGKVELFPGRGNEGARIKKAYGDIDRAFAEAEHVIRHKYVTNRHSGVPMEPRAVVVQPDPARDTLFIWGTVHVHDNRRIIAKMLNLPEVNVRMKHVEIGGSFGVKGGVFPENVVAAWAARTLGVPIKWTEDRVEHMTSTSHAREMVHKLELALDAEGRILGMKDEIFHNHGAYFRQAEPLVSDITAGIVFGPYRVPAYDATLHAVFTNKTPVGAYAAPGRYESTFARERIFDLACAEIGLSKTEFRRRNLLTAEDLPWTPGLDIVHEPYHFDSGDVVKHFNEALEAANFSEWLEESKRLRADGRKVGVGLGVLMDKAGLGLFETGGVEVSRAGRVTVKTGGSSVGQGIETVLAQIVAEELQIAPENIDIVHSDTELIPDGVGSWSSRSTVLAGGAARKAALAVVEKARRLASEMLEADPDDLELTAGSFKVKGTDQQISLYEIAAARDPFTARADNDEPGLAADAVYMNNAMNYPYGVTLVQIELDPDTGGHRILRFSTSTEAGRVINPLTTRGQIIGAAVQGIGGALYEEFLYEEDGQPITTSFMDYLLPSAQEMPNVDCFVTEDAKSPDNPFGAKGLGEIGIIAAGAAIASAIDDAIADGVHTDRLPVTPEQIFSRCQGLNKAER
notes: as for B1
With B2 as the protein, how does the Km (purified protein) read?
Its Km is 21.4 ± 2.3 µM.

What about the kcat (purified protein) of the same protein?
Its kcat is 6.32 ± 0.16 s⁻¹.

What about the kcat/Km (purified protein) of the same protein?
The kcat/Km was 300000 ± 70000 M⁻¹ s⁻¹.

B3: Kdh holoenzyme (heterotrimer of KdhL, KdhM and KdhS) (complex, Arthrobacter nicotinovorans)
chain 1: MMAKAKALIPDNGRAGADEGNRQAWIGQEVLRREDRRLLTGTATFAGDLGVPGQLHMRIVRSTQAHARIVSIDATEAEKTPGVRMVITSEHTRHLGSVLLEELGYHEIYENIEDFSHPVLAVDKVLYVGQPVVAVLAVDPYLAEDAAELVSIEYEPLPVLLDPEEALTGKVELFPGRGNEGARIKKAYGDIDRAFAEAEHVIRHKYVTNRHSGVPMEPRAVVVQPDPARDTLFIWGTVHVHDNRRIIAKMLNLPEVNVRMKHVEIGGSFGVKGGVFPENVVAAWAARTLGVPIKWTEDRVEHMTSTSHAREMVHKLELALDAEGRILGMKDEIFHNHGAYFRQAEPLVSDITAGIVFGPYRVPAYDATLHAVFTNKTPVGAYRAPGRYESTFARERIFDLACAEIGLSKTEFRRRNLLTAEDLPWTPGLDIVHEPYHFDSGDVVKHFNEALEAANFSEWLEESKRLRADGRKVGVGLGVLMDKAGLGLFETGGVEVSRAGRVTVKTGGSSVGQGIETVLAQIVAEELQIAPENIDIVHSDTELIPDGVGSWSSRSTVLAGGAARKAALAVVEKARRLASEMLEADPDDLELTAGSFKVKGTDQQISLYEIAAARDPFTARADNDEPGLAADAVYMNNAMNYPYGVTLVQIELDPDTGGHRILRFSTSTEAGRVINPLTTRGQIIGAAVQGIGGALYEEFLYEEDGQPITTSFMDYLLPSAQEMPNVDCFVTEDAKSPDNPFGAKGLGEIGIIAAGAAIASAIDDAIADGVHTDRLPVTPEQIFSRCQGLN
chain 2: MKPPSFDYVVADSVEHALRLLADGGDDAKIIAGGQSLVPLLNFRMSRPSLLVDINRVPGLANIRKSDQTIAIGALTRHAKLTTSKTISQNLPILSEAAAWIAHPQIRNRGTIGGSLAHADAAAELPVVLLALDAYVTAQSLQGERKIPLKELLVSHFVSSILPGELIVEVNVPQLPHGSGAAFDEFSRRHGDYAIGGAASIVTLDEQGKCSRARITVLGGGSTAIRCQEAENILIDSTLSSHDIAAAAHAAVQGLDPVPTVHGSAQYRAQVIRTMVERTLAKALHRA
chain 3: MNAFRLTVEVNGVTHATDVEPRRLLADFLRDDLHLRGTRVGCEHGVCGSCTVLLDGQPVRSCTVLAVQANNSRIETVESLQKDGQLHPLQRSFSKCHALQCGFCTSGFLMTLKPLYDDEDVTLDATSAREAISGNICRCTGYQQIVEATVDAFHCRDHND
notes: KdhL, 87 kDa molybdopterin (MCD) subunit of Kdh, Arthrobacter nicotinovorans; KdhM, 32 kDa FAD subunit of Kdh, Arthrobacter nicotinovorans; contains 287 residues; KdhS, 17.6 kDa Fe2S2 subunit of Kdh, Arthrobacter nicotinovorans; has 160 residues; Heterotrimer with MCD, two Fe2S2 and FAD; two heterotrimers form the dimer seen in the crystal; also called ketone dehydrogenase; …
B3 was tested. Which “stoichiometry N” value [1] did it give?
Its value is 2.
